Experimental data taken from IntAct's records for PubMed 20639876.

B1: Myeloid differentiation primary response protein MyD88 (Mus musculus), P22366 (parent)
chain: MSAGDPRVGSGSLDSFMFSIPLVALNVGVRRRLSLFLNPRTPVAADWTLLAEEMGFEYLEIRELETRPDPTRSLLDAWQGRSGASVGRLLELLALLDREDILKELKSRIEEDCQKYLGKQQNQESEKPLQVARVESSVPQTKELGGITTLDDPLGQTPELFDAFICYCPNDIEFVQEMIRQLEQTDYRLKLCVSDRDVLPGTCVWSIASELIEKRCRRMVVVVSDDYLQSKECDFQTKFALSLSPGVQQKRLIPIKYKAMKKDFPSILRFITICDYTNPCTKSWFWTRLAKALSLP
B2: TIR domain-containing adapter molecule 1 (Mus musculus), Q80UF7 (parent)
chain: MDNPGPSLRGAFGILGALERDRLTHLKHKLGSLCSGSQESKLLHAMVLLALGQDTEARVSLESLKMNTVAQLVAHQWADMETTEGPEEPPDLSWTVARLYHLLAEENLCPASTRDMAYQVALRDFASQGDHQLGQLQNEAWDRCSSDIKGDPSGFQPLHSHQGSLQPPSASPAVTRSQPRPIDTPDWSWGHTLHSTNSTASLASHLEISQSPTLAFLSSHHGTHGPSKLCNTPLDTQEPQLVPEGCQEPEEISWPPSVETSVSLGLPHEISVPEVSPEEASPILPDALAAPDTSVHCPIECTELSTNSRSPLTSTTESVGKQWPITSQRSPQVPVGDDSLQNTTSSSPPAQPPSLQASPKLPPSPLSSASSPSSYPAPPTSTSPVLDHSETSDQKFYNFVVIHARADEQVALRIREKLETLGVPDGATFCEEFQVPGRGELHCLQDAIDHSGFTILLLTASFDCSLSLHQINHALMNSLTQSGRQDCVIPLLPLECSQAQLSPDTTRLLHSIVWLDEHSPIFARKVANTFKTQKLQAQRVRWKKAQEARTLKEQSIQLEAERQNVAAISAAYTAYVHSYRAWQAEMNKLGVAFGKNLSLGTPTPSWPGCPQPIPSHPQGGTPVFPYSPQPPSFPQPPCFPQPPSFPQPPSFPLPPVSSPQSQSFPSASSPAPQTPGPQPLIIHHAQMVQLGVNNHMWGHTGAQSSDDKTECSENPCMGPLTDQGEPLLETPE

Variants of: B1
Conditions: with cblb_mouse Cblb
Target sequence in this assay (Q3TTA7 whole entry): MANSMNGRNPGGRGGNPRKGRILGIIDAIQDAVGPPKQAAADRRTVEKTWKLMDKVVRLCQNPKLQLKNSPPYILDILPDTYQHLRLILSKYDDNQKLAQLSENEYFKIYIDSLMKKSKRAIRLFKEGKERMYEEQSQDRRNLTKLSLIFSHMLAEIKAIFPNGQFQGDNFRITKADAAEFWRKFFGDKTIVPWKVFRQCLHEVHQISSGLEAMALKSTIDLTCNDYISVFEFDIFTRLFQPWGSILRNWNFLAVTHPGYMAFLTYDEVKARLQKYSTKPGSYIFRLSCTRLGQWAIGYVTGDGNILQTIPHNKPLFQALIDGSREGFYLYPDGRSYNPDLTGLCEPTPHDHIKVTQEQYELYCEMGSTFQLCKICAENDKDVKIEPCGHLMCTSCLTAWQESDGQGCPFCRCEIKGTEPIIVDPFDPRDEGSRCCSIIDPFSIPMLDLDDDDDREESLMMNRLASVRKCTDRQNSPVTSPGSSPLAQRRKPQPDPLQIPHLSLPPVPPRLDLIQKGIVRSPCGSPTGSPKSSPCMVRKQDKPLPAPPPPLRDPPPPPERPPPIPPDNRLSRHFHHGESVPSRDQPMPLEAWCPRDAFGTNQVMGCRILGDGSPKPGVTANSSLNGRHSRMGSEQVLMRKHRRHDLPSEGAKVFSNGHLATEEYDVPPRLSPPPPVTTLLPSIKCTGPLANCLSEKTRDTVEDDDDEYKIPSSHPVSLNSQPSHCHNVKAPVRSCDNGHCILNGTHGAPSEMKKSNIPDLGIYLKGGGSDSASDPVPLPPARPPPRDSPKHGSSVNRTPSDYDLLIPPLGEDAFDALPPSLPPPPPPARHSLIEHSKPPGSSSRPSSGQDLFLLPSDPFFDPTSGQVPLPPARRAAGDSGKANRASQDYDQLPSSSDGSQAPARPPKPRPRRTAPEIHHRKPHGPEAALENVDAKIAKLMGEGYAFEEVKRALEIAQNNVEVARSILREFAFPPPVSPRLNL

Y227F was tested. Which “effect of a mutation on the interaction” value did it give?
The value was “decreasing interaction”.

Variants of: B2
Conditions: with cblb_mouse Cblb
Target sequence in this assay (Q3TTA7 whole entry): as above

How did the “effect of a mutation on the interaction” value turn out when Y375F was run?
Its value is “decreasing interaction”.
